Data published in patent US20240252795A1, “INGESTIBLE DEVICE FOR DELIVERY OF THERAPEUTIC AGENT TO THE GASTROINTESTINAL TRACT” (BIORA THERAPEUTICS, INC., priority 2018, published 2024).

Legend:
[1] = Adalimumab plasma PK after ID (2-nozzle jet delivery device), SC or IV administration; format: in vivo, female Yorkshire pigs (Sus scrofa domesticus)
Description: A total of 21 healthy female Yorkshire pigs (Sus scrofa domesticus) having a body weight of 25-30 kg were used in this study. Five (N=5) were used in each of dose Groups 1-3 (intraduodenal (ID) administration via an endoscopically placed ingestible device), and three (N=3) were used in each of dose Group 4 (SC administration) and dose Group 5 (IV administration). The study design is shown below in Table 16.
Animals were housed two per cage and fasted for a minimum of 12 hours prior to dosing. Food was returned at 4 hours post-dose. Water was supplied ad libitum. The dosing was as follows: Dose day 1: group 1 (n=3), and group 3 (n=2); Dose day 2: group 2 (n=3), and group 1 (n=2); Dose day 3: group 3 (n=3), and group 2 (n=2); Dose day 4: groups 4 (n=3), and group 5 (n=3). Following the 240-hour post-dose blood collection the animal was euthanized via euthanasia solution IV bolus dose.
For subcutaneous (SC) administration, animals were placed in dorsal recumbence and the SC injection site asceptically prepared with alcohol. The test article was administered as an SC injection into a “skin tent” on the belly of the pig.
(§1) Each blood sample was collected from the pig jugular vein, or other suitable vessel via direct venipuncture, placed into a chilled tube containing K2-EDTA as the anticoagulant, and inverted several times to mix. Blood samples were kept on wet ice until centrifugation. […] Plasma was collected into pre-labeled polypropylene tubes and placed in a freezer set to maintain −60 to −80° C. prior to analysis.
All plasma samples were diluted by 1:100 dilution. Plasma samples were reanalyzed with a 1:1000 dilution from animals 6287, 6289, 6332, 6334, 6336, 6149, 6335, and 6337. Plasma samples close to the lower limit of quantification (LLOQ) were repeated with a 1:5 dilution from animals 6138 and 6137. […] Therefore, the data from animal 6138 and 6137 were not included in the final PK analysis. […] The area under the concentration curve (AUC) was calculated with the trapezoidal rules.

[2] = Adalimumab plasma PK after ID administration via 4-nozzle jet delivery device; format: in vivo, female Yorkshire pigs (Sus scrofa domesticus); conditions: for AUC0-10 (±SEM) / Tmax: 40 mg, N=4, plasma; for AUC0-10 Corrected for Dose (±SEM): N=4; for Bioavailability over IV (±SEM): vs Example 5 IV control; for Bioavailability over IV (±SEM) / Bioavailability over SC (±SEM): AUC corrected for dose used; for Bioavailability over SC (±SEM): vs Example 5 SC control
Description: A total of 9 healthy female Yorkshire pigs (Sus scrofa domesticus) having a body weight of 24-30 kg were used in this study. […] Each dose group received test article via intraduodenal (ID) administration. The study design is shown below in Table 21.
Animals were housed two per cage and fasted for a minimum of 12 hours prior to dosing. Food was returned at 4 hours post-dose. Water was supplied ad libitum. The dosing was as follows: Dose day 1: group 1 (n=2), and group 2 (n=3); Dose day 2: group 2 (n=3), and group 1 (n=2).
Intraduodenal (ID) administration was performed as follows.
as §1
All plasma samples were diluted by 1:100 dilution. Diluted samples were processed in duplicates and the mean Optical Density (O.D.) was measured using a SpectraMax plate reader is and utilizing SoftMax Pro software for analysis. The Lower Limit of Quantification (LLOQ) was calculated by adding 10× the standard deviation value of the blanks O.D. to the average of the blank standard O.D. values. […] The area under the concentration curve (AUC) was calculated with the trapezoidal rules.
The PK results were compared to a subset of data from Example 5. The bioavailability was determined by comparison with Example 5 control arms (SC and IV administration).

[3] = Adalimumab plasma PK after ID administration via endoscopic injection needle; format: in vivo, female Yorkshire pigs (Sus scrofa domesticus); conditions: 5 pigs in two studies
Description: A total of 5 healthy female Yorkshire pigs (Sus scrofa domesticus) having a body weight of ˜25-40 kg were used in these studies, 3 in a first study and 2 in a second study. Each animal received test article via intraduodenal (ID) administration via an injection needle. The study design is shown below in Table 34.
Animals were housed one per cage and fasted for a minimum of 12 hours prior to dosing. Food was returned at 4 hours post-dose. Water was supplied ad libitum.
Intraduodenal (ID) administration was performed as follows. […] Once it was confirmed that the endoscopic injection needle was placed in the correct region, approximately 0.5 mL of saline was injected within the lamina propria of the mucosa to create a small bleb in the mucosa. The formulation was then injected into the bleb and flushed with approximately 0.8 mL of saline. […]
All plasma samples were diluted by 1:100 dilution. Diluted samples were processed in duplicates and the mean Optical Density (O.D.) was measured using a SpectraMax plate reader and utilizing SoftMax Pro software for analysis. The Lower Limit of Quantification (LLOQ) was calculated by adding 10× the standard deviation value of the blanks O.D. to the average of the blank standard O.D. values. […] The area under the concentration curve (AUC) was calculated with the trapezoidal rules.

[4] = molecular target: TNFα (Homo sapiens, UniProt P01375); test: LOCI competitive inhibition assay of adalimumab binding to TNFα after jet dispensing; conditions: delivery pressures up to 300 psi, nozzle diameter down to 0.35 mm
Description: The drug (adalimumab) was loaded into the ingestible device and fired through a nozzle with varying diameters at various pressure conditions.
FIGS. 57A-57B illustrate the general principle of the assay.
Drug binding was detected using Luminescent Oxygen Channeling (LOCI™)—a competitive binding assay. Signal was detected by comparing to a non-drug carrier control and an artificially damaged drug using a commercial FAB fragmentation kit.
Drug function was determined through a competition binding assay comparing drug binding function for drug dispensed via standard delivery mechanism and drug delivered via the ingestible device with various pressures.

[5] = Group 1: ID, 2 nozzle jet delivery device 220 PSIG, 40 mg, N=2, plasma
[6] = Group 3: ID, 2 Nozzle device 320 PSIG, N=5, data from Example 5
[7] = Group 3: ID, 2 Nozzle device 320 PSIG, data from Example 5
[8] = Group 3: ID, 2 nozzle jet delivery device 320 PSIG, 40 mg, N=5, plasma
[9] = Group 4: SC control, N=3, data from Example 5
[10] = Group 4: SC control, data from Example 5
[11] = Group 5: IV control, N=3, data from Example 5
[12] = Group 1: ID, 4 Nozzle device 320 PSIG
[13] = Group 2: ID, 4 Nozzle device 350 PSIG

Chain of TNFα (P01375 77-233 limits assumed): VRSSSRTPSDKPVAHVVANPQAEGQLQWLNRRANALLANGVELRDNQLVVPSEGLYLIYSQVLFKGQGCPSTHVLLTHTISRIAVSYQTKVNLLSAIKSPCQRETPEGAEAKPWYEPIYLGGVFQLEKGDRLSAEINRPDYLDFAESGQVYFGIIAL

## adalimumab
[1]; [5]
  Cmax: 570 ng/mL
  Tmax: 24 h
[1]; Group 2: ID, 2 nozzle jet delivery device 270 PSIG, 40 mg, N=4, plasma
  Tmax: 24 h
[1]; [6]
  AUC0-10 (±SEM): 32.31 µg·days/mL
  AUC0-10 Corrected for Dose (±SEM): 32.25 µg·days/mL
  Cmax: 5000 ng/mL
  Tmax: 24 h
[1]; [7]
  Bioavailability over IV (±SEM): 26.25
  Bioavailability over SC (±SEM): 35.38
[1]; [8]
  Cmax: 5000 ng/mL
  Tmax: 24 h
[1]; [9]
  AUC0-10 (±SEM): 91.87 µg·days/mL
  Tmax: 140 h
[1]; [10]
  Bioavailability over IV (±SEM): 74.89
  Bioavailability over SC (±SEM): 100
[1]; Group 4: SC, 40 mg, N=3, plasma
  Tmax: 140 h
[1]; Group 5: IV
  Bioavailability over IV: 100%
[1]; [11]
  AUC0-10 (±SEM): 122.67 µg·days/mL
  Tmax: 3.12 h
[1]; Group 5: IV control, data from Example 5
  Bioavailability over IV (±SEM): 100
[1]; Group 5: IV, 40 mg, N=3, plasma
  Tmax: 3.12 h
[2]; [12]
  AUC0-10 (±SEM): 23.831 µg·days/mL
  Tmax: 24 h
  AUC0-10 Corrected for Dose (±SEM): 23.997 µg·days/mL
  Bioavailability over IV (±SEM): 19.560
  Bioavailability over SC (±SEM): 26.120
[2]; [13]
  AUC0-10 (±SEM): 14.603 µg·days/mL
  Tmax: 24 h
  AUC0-10 Corrected for Dose (±SEM): 15.171 µg·days/mL
  Bioavailability over IV (±SEM): 12.367
  Bioavailability over SC (±SEM): 16.513
[3]
  quantifiable levels in plasma: one animal from the first study and one animal from the second study had quantifiable levels
[4]
  ability of the drug to bind to the target TNFα after jet delivery: did not significantly inhibit the ability of the drug to bind to the target TNFα
